Test results from paper PMC9274624.

Columns and labels:
Assay in all cases: SPR
[1] = molecular target: cat ACE2 extracellular domain (residues 1-740) fused with the Fc domain of mouse IgG (cat) (UniProt Q56H28)
[2] = molecular target: sheep ACE2 extracellular domain (residues 1-740) fused with the Fc domain of mouse IgG (sheep)
[3] = molecular target: horse ACE2 extracellular domain (residues 1-740) fused with the Fc domain of mouse IgG (horse) (UniProt F6V9L3)
[4] = molecular target: goat ACE2 extracellular domain (residues 1-740) fused with the Fc domain of mouse IgG (goat)
[5] = molecular target: wild Bactrian camel ACE2 extracellular domain (residues 1-740) fused with the Fc domain of mouse IgG (wild Bactrian camel)
[6] = molecular target: mink ACE2 extracellular domain (residues 1-740) fused with the Fc domain of mouse IgG (mink)
[7] = molecular target: fox ACE2 extracellular domain (residues 1-740) fused with the Fc domain of mouse IgG (fox)
[8] = molecular target: fulvous fruit bat ACE2 extracellular domain (residues 1-740) fused with the Fc domain of mouse IgG (fulvous fruit bat)
[9] = molecular target: monkey ACE2 extracellular domain (residues 1-740) fused with the Fc domain of mouse IgG (monkey) (UniProt F7AH40)
[10] = molecular target: alpaca ACE2 extracellular domain (residues 1-740) fused with the Fc domain of mouse IgG (alpaca)
[11] = molecular target: bovine ACE2 extracellular domain (residues 1-740) fused with the Fc domain of mouse IgG (bovine) (UniProt Q58DD0)
[12] = molecular target: rabbit ACE2 extracellular domain (residues 1-740) fused with the Fc domain of mouse IgG (rabbit) (UniProt G1TEF4)
[13] = molecular target: little brown bat ACE2 extracellular domain (residues 1-740) fused with the Fc domain of mouse IgG (little brown bat) (UniProt G1PXH7)
[14] = molecular target: pig ACE2 extracellular domain (residues 1-740) fused with the Fc domain of mouse IgG (pig) (UniProt K7GLM4)
[15] = molecular target: big-eared horseshoe bat ACE2 extracellular domain (residues 1-740) fused with the Fc domain of mouse IgG (big-eared horseshoe bat)
[16] = molecular target: raccoon dog ACE2 extracellular domain (residues 1-740) fused with the Fc domain of mouse IgG (raccoon dog) (UniProt B4XEP4)
[17] = molecular target: dog ACE2 extracellular domain (residues 1-740) fused with the Fc domain of mouse IgG (dog)

## SARS-CoV-2 prototype RBD (residues 319-541) (from UniProt P0DTC2 319-541) (domain or fragment)
[1]
  Kd: 99 nM
[2]
  Kd: 174 nM
[3]
  Kd: 221 nM
[4]
  Kd: 214 nM
[5]
  Kd: 104 nM
[6]
  Kd: 305 nM
[7]
  Kd: 56.2 nM
[8]
  Kd: 157 nM
[9]
  Kd: 22 nM
[10]
  Kd: 11800 nM
[11]
  Kd: 181 nM
[12]
  Kd: 48.1 nM
[13]
  Kd: 130 nM
[14]
  Kd: 139 nM
[15]
  Kd: 677 nM
[16]
  Kd: 80 nM
[17]
  Kd: 101 nM
